Series [1] addresses 14-3-3γ (UniProt P61981). The experiment in a line: negative-stain electron microscopy.
The target of series [2] is 14-3-3γ (UniProt P61981). The experiment in a line: negative-stain electron microscopy. This is another data set of the same source.
The target of series [3] is 14-3-3γ (UniProt P61981). The experiment in a line: native MS.
Series [4] deals with 14-3-3γ (UniProt P61981). The experiment in a line: native MS. This is another data set of the same source.
In series [5] the target is 14-3-3γ (UniProt P61981). The experiment in a line: SPR. On the technique in general: In SPR one partner is held on a chip, and binding of the other changes the refractive index at the surface.
For series [6], the target named is 14-3-3γ (UniProt P61981). The experiment in a line: native MS. The source holds these as a separate data set.
The target of series [7] is GST-14-3-3γ (UniProt P61981). The experiment in a line: SPR.
For series [8], the target named is GST-14-3-3γ (UniProt P61981). The experiment in a line: SPR. This is another data set of the same source.
Series [9] has as its target GST-14-3-3γ (UniProt P61981). The experiment in a line: SPR. This is another data set of the same source.
The series “native MS” deals with the molecule itself. The experiment in a line: native MS.

Where “and” joins values, the source holds several entries; their conditions need not be identical. Identical values can stand only once. Like-named read-outs stand apart in the source and are kept apart here.

As usually defined, the kon is the second-order rate constant of association. Low values mean slow association, high ones fast association. Usually koff stands for the first-order rate constant of dissociation. What is called Kd is the free concentration of one partner at which half of the binding sites on the other are occupied at equilibrium, for simple one-to-one binding. By stoichiometry N is commonly meant the number of molecules, sites or subunits per partner or assembly.

Turning to “human tyrosine hydroxylase isoform 1 phosphorylated on Ser19 (TH-pS19), full stoichiometry (from UniProt P07101-3 1-497) (enzyme)”, the stoichiometry N (14-3-3γ dimers per TH tetramer) with 14-3-3γ [1] amounted to 2; in the series with 14-3-3γ [2], 1; with 14-3-3γ [3], 2; in the series with 14-3-3γ [4], 2; with 14-3-3γ [6], 1. The dissociation rate constant of the smaller, rapidly dissociating population in the series with 14-3-3γ [5] came to 0.018 s⁻¹. This molecule gave a kon in the series with 14-3-3γ [5] of 144000 M⁻¹ s⁻¹.

In the series with GST-14-3-3γ [7], “human tyrosine hydroxylase isoform 1 phosphorylated on Ser19 to low stoichiometry (TH-pS19L) (from UniProt P07101-3 1-497) (enzyme)” gave a kon of 1.8e+06 M⁻¹ s⁻¹. Further, in the series with 14-3-3γ [4], the stoichiometry N (14-3-3γ dimers per TH tetramer) is 1 and 2. In the series with GST-14-3-3γ [8], the koff is 0.00063 to 0.00069 s⁻¹ and the kon turned out to be 2.4e+06 M⁻¹ s⁻¹. Besides, in the series with 14-3-3γ [5], the Kd was determined as 0.57 nM; the dissociation rate constant of the smaller, rapidly dissociating population amounted to 0.019 s⁻¹; the koff was in the range of 0.00045 to 0.00051 s⁻¹; the kon came out at 780000 M⁻¹ s⁻¹. The molecule further showed a kon with GST-14-3-3γ [9] of 1.2e+06 M⁻¹ s⁻¹.

Take “human tyrosine hydroxylase isoform 1 phosphorylated on both Ser19 and Ser40 (TH-pS19pS40) (from UniProt P07101-3 1-497) (enzyme)”: the stoichiometry N (14-3-3γ dimers per TH tetramer) with 14-3-3γ [4] is 2. In addition, in the series with 14-3-3γ [5], the Kd was determined as 2.1 nM; the dissociation rate constant of the smaller, rapidly dissociating population turned out to be 0.018 s⁻¹; the koff is 0.00036 s⁻¹; the kon came out at 159000 M⁻¹ s⁻¹.

B1: 14-3-3γ (natural protein)
chain: VDREQLVQKARLAEQAERYDDMAAAMKNVTELNEPLSNEERNLLSVAYKNVVGARRSSWRVISSIEQKTSADGNEKKIEMVRAYREKIEKELEAVCQDVLSLLDNYLIKNCSETQYESKVFYLKMKGDYYRYLAEVATGEKRATVVESSEKAYSEAHEISKEHMQPTHPIRLGLALNYSVFYYEIQNAPEQACHLAKTAFDDAIAELDTLNEDSYKDSTLIMQLLRDNLTLWTSDQQDDDGGEGNN
In the case of B1, in “native MS”, the “stoichiometry N” value is 2.

Source of the values: publication PMC4125734 (Molecular & Cellular Proteomics : MCP, 2014).
